This is an account of results in patent publication US20150329863, “APTAMERS INHIBITING THE ENZYMATIC ACTIVITY OF TYROSINASE” (L V M H RECHERCHE, published 2015).

In data set [1] the target is T1, tyrosinase (endogenous, normal human melanocytes) (Homo sapiens) (UniProt P14679).
T1 sequence: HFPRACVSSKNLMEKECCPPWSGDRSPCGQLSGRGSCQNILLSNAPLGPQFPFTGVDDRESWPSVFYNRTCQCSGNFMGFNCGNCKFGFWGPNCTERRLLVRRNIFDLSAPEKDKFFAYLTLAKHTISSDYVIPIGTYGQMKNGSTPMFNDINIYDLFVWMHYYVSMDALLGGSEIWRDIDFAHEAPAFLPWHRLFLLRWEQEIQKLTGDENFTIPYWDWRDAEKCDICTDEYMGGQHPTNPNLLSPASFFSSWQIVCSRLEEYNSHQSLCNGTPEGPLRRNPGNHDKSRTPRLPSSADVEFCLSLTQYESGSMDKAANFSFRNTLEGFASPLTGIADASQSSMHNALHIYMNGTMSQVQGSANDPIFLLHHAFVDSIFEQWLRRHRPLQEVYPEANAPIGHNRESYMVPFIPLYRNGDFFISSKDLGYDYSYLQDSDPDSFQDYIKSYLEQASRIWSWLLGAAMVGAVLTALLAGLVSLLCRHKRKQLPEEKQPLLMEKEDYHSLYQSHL
As to the kind of experiment: cell_activity. Particulars: 4-200 nM, no dose dependence; 72 h melanocyte treatment, L-DOPA oxidation.

The target of a further data set is T2, tyrosinase (TYR) (Homo sapiens, UniProt P14679 P14679:19-529).
T2 sequence: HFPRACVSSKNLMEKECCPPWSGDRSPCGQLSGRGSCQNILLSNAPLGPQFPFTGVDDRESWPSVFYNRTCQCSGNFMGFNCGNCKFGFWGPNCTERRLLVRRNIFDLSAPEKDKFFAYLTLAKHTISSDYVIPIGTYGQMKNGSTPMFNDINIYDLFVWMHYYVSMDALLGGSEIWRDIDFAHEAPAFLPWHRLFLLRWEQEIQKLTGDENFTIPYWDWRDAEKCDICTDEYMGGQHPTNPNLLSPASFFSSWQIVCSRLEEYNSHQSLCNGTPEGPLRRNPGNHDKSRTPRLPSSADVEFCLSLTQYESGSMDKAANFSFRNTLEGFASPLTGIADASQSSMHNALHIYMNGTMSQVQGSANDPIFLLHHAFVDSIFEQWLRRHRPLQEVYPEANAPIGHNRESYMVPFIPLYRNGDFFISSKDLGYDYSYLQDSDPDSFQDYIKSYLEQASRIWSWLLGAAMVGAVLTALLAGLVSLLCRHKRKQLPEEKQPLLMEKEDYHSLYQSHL
The experiment in a line: SPR; 16 RU at 500 nM and 42 RU at 1 uM tyrosinase on about 1000 RU immobilized biotinylated aptamer; PBS-Mg buffer, 23 C. The settings on record: tags: N-terminal GST tag, Abnova; label: biotin (SPR); predicted long imperfect stem-loop with 5-nt internal loop and 5-nt apical loop. How it is done:
All the experiments were carried out on a Biacore 3000 device with PBS—Mg buffer at 23° C. The biotinylated oligonucleotides—heated at 75° C. for 5 minutes, placed on ice for 5 minutes and then placed at room temperature for at least 5 minutes—were immobilized on streptavidin-coated sensor chips (XanTec bioanalytics). The oligonucleotides were injected at 100 nM for 4 minutes at 5 μl/min to reach 800 to 1000 RU.
Tyrosinase and the GST-His control were injected at 500 nM and 1 μM at a rate of 20 μl/min at 23° C. The same injections were carried out with PBS—Mg buffer and tyrosinase storage buffer to subtract the effects of the buffer from the specific sensorgram.
The binding of this candidate, T10.1, and of truncated versions derived from the full-length candidate (Table 1) was investigated by surface plasmon resonance (SPR). About 1000 resonance units (RU) of biotinylated candidate T10.1 were immobilized and tyrosinase was injected at 500 nM or 1 μM. Signals of 16 and 42 RU were detected for 500 nM and 1 μM, respectively, indicating interaction between candidate T10.1 and tyrosinase (FIG. 2).

Take “GCCTGTTGTGAGCCTCCTGTCGAANNNNNNNNNNNNNNNNNNNNNNNNNNNNNNTTGAGCGTTTATTCTTGTCTCCC [round 10 population]”: the activity in data set [1] was over 75 % inhibition.

B1: T10.1 (ssDNA)
DNA: GCCTGTTGTGAGCCTCCTGTCGAACGCAATGGGCGCAGATTGGAAGGCCTAGCATTGAGCGTTTATTCTTGTCTCCC
As to B1, the binding result with tyrosinase (TYR) is reported as “binds”.
